According to publication PMC3098231:

Biological target: human alpha-thrombin (Homo sapiens, UniProt P00734;P00734 328-363;364-622)
Experiment: SPR imaging (k-1/k1); 50 nM thrombin; 20 mM Tris-HCl pH 7.4, 140 mM NaCl, 5 mM KCl, 1 mM CaCl2, 1 mM MgCl2; SPR at 25 C; EMSA in the same selection buffer, 14% native PAGE in 1X Tris-glycine at 4 C

Row | Binder | Kd
1 | ACACGCGCATGCGGTTGGTGTGGTTTGGCATGCGCCACA (structured_DNA, 3'-thiol for SPR) [Motif Ia rank 3 hairpin] | 170 nM
2 | ACACGCGCATGCGGTTGGTTTGGTTGGGCATGCGCCACA (structured_DNA, 3'-thiol for SPR) [Motif Ia rank 9 hairpin] | 650 nM
3 | ACACGCGCATGCGGTTGGTGCGGTTGGGCATGCGCCACA (structured_DNA, 3'-thiol for SPR) [Motif Ia rank 25 hairpin] | 2200 nM
